Data taken from PMC3681970, “Biochemical Characterization of UDP-N-acetylmuramoyl-L-alanyl-D-glutamate: meso-2,6-diaminopimelate ligase (MurE) from Verrucomicrobium spinosum DSM 4136^T” (PLoS ONE, 2013).

How the values were obtained:
Assay in all cases: radiometric HPLC ligase assay, Michaelis-Menten fit
Assay type in all cases: biochemical, Verrucomicrobium spinosum
[1] = substrate: CC(=O)N[C@H]1[C@@H](OP(=O)(O)OP(=O)(O)OC[C@H]2O[C@@H](n3ccc(=O)[nH]c3=O)[C@H](O)[C@@H]2O)O[C@H](CO)[C@@H](O)[C@@H]1O[C@H](C)C(=O)N[C@@H](C)C(=O)N[C@H](CCC(=O)O)C(=O)O; conditions: 100 mM Tris-HCl pH 9.6, 30 mM MgCl2, 37°C, other substrates fixed (standard 5 mM ATP, 150 µM meso-A2pm), labelled compound (14C in D-Glu)
[2] = substrate: N[C@H](CCC[C@H](N)C(=O)O)C(=O)O; conditions: 100 mM Tris-HCl pH 9.6, 30 mM MgCl2, 37°C, other substrates fixed (standard 5 mM ATP, 150 µM UDP-MurNAc-L-Ala-D-[14C]Glu)
[3] = substrate: Nc1ncnc2c1ncn2[C@@H]1O[C@H](COP(=O)(O)OP(=O)(O)OP(=O)(O)O)[C@@H](O)[C@H]1O; conditions: 100 mM Tris-HCl pH 9.6, 30 mM MgCl2, 37°C, other substrates fixed (standard 150 µM UDP-MurNAc-L-Ala-D-[14C]Glu, 150 µM meso-A2pm)

B1: MurEVs (Verrucomicrobium spinosum) (protein)
chain: MTILRDLIEGLDKPVISGGLDVEVAGLAYDSRLVKPGFVFFALRGVKSDGHDFIPKALAEGAVAIVAETAPPEDCSVTWLHVKNARVALAEMAAAYKGHPARSMAVGGVTGTNGKTTTAFLLHHLLNHAHRRCGLLGTVVYDVGGDLKPATHTTPESLELQGLLSEMRDRGCVAVAMEVSSHAIDQHRTHGVPFAAAVFTNLSQDHLDYHGTMEEYFKAKSKLFSSTAASRSGKLVINVDDIWGRRLVDAHKEHPGLVTYGLGVAADYRAVNPRYDLTGTSFELEHKGRSLLVRIPQIGQFNVYNSLAALAAAHGMGCNLRDTVKAMQSSPQIPGRMERVTPDNHSFHVFVDYAHTPDGLVNALSTARALRPERIITVFGCGGDRDRLKRPLMARAVEEHSDISILTSDNPRTEDPQAIMDDARKGFTRSAHALIADRKEAIHTAIKGAREGDIVVIAGKGHEPYQDVQGVKHPFDDRRVARQLVDIEIRIKGEKRLEARQRRDDRQ
Q: Which results are given for B1?
A: Km [1]: 24 ± 6 µM; Km [2]: 17 ± 3 µM; Km [3]: 290 ± 70 µM
